Test results: patent US20230174599A1 (University of California, published 2023)
“And” between values parts separate entries of the source, which are not always exact repeats. Identical values can stand only once. Like-named read-outs stand apart in the source and are kept apart here.

B1: RiAFP-HTH.2 (designed binder)
chain: ASRAEARGEAMAEGHSRGSATSHANATGHADARSMSEGNAEAYTEAKGDAMATSEASGEARAQTNADGSAHSSSRTHGRADSTASAKGGKALNDKEAKNKAILNLEEIEEQAKTFLDKFNHEAEDLFYQSSLASWNYNTNITEENVQNMNNAGDKWSAFLKEQSTLAQMYQNEIKRKSEKQEDLKKEMLELEKLGGAMAEGTSDGDAKSYASADGNASAKSMSTGHADATTNAHGTAMADSNAIGEARAETRAEGRAESSSDTDGS
notes: also called mBSP-HTH.2; RiAFP-.2
B2: polymeric RiAFP-HTH.2 fixed to nitrocellulose (designed binder)
chain: B1 chain
B3: RiAFP-HTH.1 (designed binder)
chain: ASRAEARGEAMAEGHSRGSATSHANATGHADARSMSEGNAEAYTEAKGDAMATSEASGEARAQTNADGSAHSSSRTHGRADSTASAKTNYNRECGEEQAKTFLDKFNHEAEDLFYQSSLASWNYNTNITEENVQNRNNAGDKRSAFLKEQSTLAQMYGCGSGSAMAEGTSDGDAKSYASADGNASAKSMSTGHADATTNAHGTAMADSNAIGEARAETRAEGRAESSSDTDGS
notes: also called mBSP-HTH.1; RiAFP-HTH.1 construct

What was measured:
SARS-CoV-2 Spike RBD [1] = target: T1, SARS-CoV-2 Spike RBD (SARS-CoV-2, UniProt P0DTC2 319-541)
T1 construct: domain: RBD; also called single RBDs; Spike RBD proteins

SARS-CoV-2 Spike RBD [2] = target: T1, SARS-CoV-2 Spike RBD
SARS-CoV-2 Spike RBD [3] = target: T1, SARS-CoV-2 Spike RBD; remark: listed apart in the source
SARS-CoV-2 Spike RBD [4] = target: T1, SARS-CoV-2 Spike RBD; remark: listed apart in the source

Row | Binder | Kd (SARS-CoV-2 Spike RBD [1]) | Kd (SARS-CoV-2 Spike RBD [2]) | Kd (SARS-CoV-2 Spike RBD [3]) | Kd (SARS-CoV-2 Spike RBD [4]) | koff (SARS-CoV-2 Spike RBD [4])
1 | B1 | 2.1 nM | ≥ 41 nM and ≤ 84 nM and 28 nM | 2.1 to 28 nM | – | –
2 | B2 | – | – | – | 0.006 to 0.009 nM and ≤ 0.01 nM | 6e-07 to 9e-07 s⁻¹
3 | B3 | – | – | 0.7 to 1.6 nM | – | –
